# Data: US20170158753A1 (INTEGRATED BIOTHERAPEUTICS, published 2017)
# Where a chain is given by its changes, count along the chain named.
# B1: m17C6 (antibody, V domains shown)
# VH: EVQLQESGPGLVQPSQSLSITCTVSGFSLTSYGVHWVRQSPGKGLEWLGVIWSGGSTDYNAAFISRLSISKDNSKSQVFFKMNSLQADDTAIYYCARNWFDYDNYYSMDYWGQGTSVTVSS
# VL: DIQMTQTTSSLSASLGDRVTISCRASQDISNYLNWYQQKPDGTVKLLIYYTSRLHSGVPSRFSGSGSGTDFSLTISNQEPEDIATYYCQQYSNLPWTFGGGTKLEIKR
# B2: m16G8 (antibody, V domains shown)
# VH: EVQLQESGPGLVKPGASVKISCKASGYSFTGYYMNWVKQSPEKSLEWIGEINPSTGGTTYNQKFKAKATLTVDKSSSTAYMQLKSLTSEDSAVYYCVRYSHYYGSGSWYFDVWGTGTTVTVSS
# VL: DIQMTQSPASLSASVGETVTITCRASENIYSNLAWYQQKQGKSPQLLVNAATNLADGVPSRFSGSGSGTQFSLKINSLQPEDFGSYYCQHFYVTPYMFGSGTKLEIKR
# B3: m2E4 (antibody, V domains shown)
# VH: B2 VH with G10E
# VL: B2 VL with M97T
# B4: m2D8 (antibody, V domains shown)
# VH: EVQLQESGGELVRPGTSVKISCKASGYTFTNFWLGWIKERPGHGLEWIGDIYPGGHYTNYNENFKGKATLTADTSSNTAYMQVSSLTSEDSAVYFCFTQYYDMDYWGQGTSVTVSS
# VL: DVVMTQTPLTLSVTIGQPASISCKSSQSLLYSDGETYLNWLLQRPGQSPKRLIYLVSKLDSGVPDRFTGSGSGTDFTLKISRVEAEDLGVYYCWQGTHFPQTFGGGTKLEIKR
# B5: m21B2 (antibody, V domains shown)
# VH: EVQLQESGAELVRPGASVTLSCKTSGYTFTDYEMHWVKQTPVHGLEWIGAIDPETGGTAYNQKFKGKATLTADKSSSTAYMELSRLTSEDSAVYYCTGNYATDYWGQGTSVTVSS
# VL: DIVMSQSPSSLAVSAGEKVTMSCKSSQSLFNSRSRKNYLAWYQLKPGQSPKLLIYWASTRESGVPDRFTGSGSGTDFTLTISSVQAEDLAVYYCKQSNYLWTFGGGTKLEIKR
# B6: m8C4 (antibody, V domains shown)
# VH: EVQLQESGPELKKPGETVKISCKASGYTFTTYGMSWVKQAPGKGLKWMGRINTYSGVPTYADEFKGRFAFSLENSASTAYLQINNLKNEDTATYFCARGDGGHWFANWGQGTLVTVSA
# VL: DIQMTQSPSSLSASLGGKVTITCKASQDINKNIAWYQHKPGKGPRLLIWYKSALQPGIPSRFSGSGSGRDYSFSISNLEPEDIATYSCLQYDNLPPTFGGGTKLEIKR
# How the values were obtained:
# [1] = biological target: T1, glycoprotein from Sudan ebolavirus (SUDV) (Sudan ebolavirus (SUDV), UniProt Q66814 33-650); assay: summary of reactivity by any method (ELISA, Western blot, BIACORE)
# T1 sequence: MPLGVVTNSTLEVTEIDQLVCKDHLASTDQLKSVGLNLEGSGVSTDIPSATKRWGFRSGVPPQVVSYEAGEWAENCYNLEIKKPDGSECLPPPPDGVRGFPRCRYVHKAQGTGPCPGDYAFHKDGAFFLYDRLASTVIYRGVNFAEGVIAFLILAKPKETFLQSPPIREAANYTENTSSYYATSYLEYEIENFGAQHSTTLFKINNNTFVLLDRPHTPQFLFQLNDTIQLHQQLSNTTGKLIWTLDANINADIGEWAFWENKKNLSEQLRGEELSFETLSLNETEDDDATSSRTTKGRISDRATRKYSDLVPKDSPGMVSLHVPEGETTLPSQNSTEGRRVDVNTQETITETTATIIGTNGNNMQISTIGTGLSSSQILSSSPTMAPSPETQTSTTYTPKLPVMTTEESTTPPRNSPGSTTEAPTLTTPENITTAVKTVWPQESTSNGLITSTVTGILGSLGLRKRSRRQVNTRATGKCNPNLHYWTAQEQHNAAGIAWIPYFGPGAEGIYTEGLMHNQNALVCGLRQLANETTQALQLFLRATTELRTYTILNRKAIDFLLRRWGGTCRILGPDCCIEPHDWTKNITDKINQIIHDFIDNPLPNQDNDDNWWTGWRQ
# EBOV soluble GP (sGP) = biological target: T2, EBOV soluble GP (sGP) (Ebola virus (EBOV), UniProt P60170 33-324); assay: ELISA on EBOV soluble GP (sGP), OD650 against nM mAb
# T2 sequence: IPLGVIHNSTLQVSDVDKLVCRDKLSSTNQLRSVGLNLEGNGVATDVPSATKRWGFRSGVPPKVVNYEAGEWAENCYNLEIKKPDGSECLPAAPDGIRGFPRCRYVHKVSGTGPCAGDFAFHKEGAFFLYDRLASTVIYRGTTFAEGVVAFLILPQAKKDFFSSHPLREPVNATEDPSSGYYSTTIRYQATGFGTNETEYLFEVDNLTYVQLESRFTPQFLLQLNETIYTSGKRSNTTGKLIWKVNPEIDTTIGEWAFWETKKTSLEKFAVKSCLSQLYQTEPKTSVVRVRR
# [2] = biological target: T3, glycoprotein from Marburg virus (MARV; Musoke isolate) (Marburg virus (MARV; Musoke isolate), UniProt P35253 19-648); assay: summary of reactivity by any method (ELISA, Western blot, BIACORE)
# T3 sequence: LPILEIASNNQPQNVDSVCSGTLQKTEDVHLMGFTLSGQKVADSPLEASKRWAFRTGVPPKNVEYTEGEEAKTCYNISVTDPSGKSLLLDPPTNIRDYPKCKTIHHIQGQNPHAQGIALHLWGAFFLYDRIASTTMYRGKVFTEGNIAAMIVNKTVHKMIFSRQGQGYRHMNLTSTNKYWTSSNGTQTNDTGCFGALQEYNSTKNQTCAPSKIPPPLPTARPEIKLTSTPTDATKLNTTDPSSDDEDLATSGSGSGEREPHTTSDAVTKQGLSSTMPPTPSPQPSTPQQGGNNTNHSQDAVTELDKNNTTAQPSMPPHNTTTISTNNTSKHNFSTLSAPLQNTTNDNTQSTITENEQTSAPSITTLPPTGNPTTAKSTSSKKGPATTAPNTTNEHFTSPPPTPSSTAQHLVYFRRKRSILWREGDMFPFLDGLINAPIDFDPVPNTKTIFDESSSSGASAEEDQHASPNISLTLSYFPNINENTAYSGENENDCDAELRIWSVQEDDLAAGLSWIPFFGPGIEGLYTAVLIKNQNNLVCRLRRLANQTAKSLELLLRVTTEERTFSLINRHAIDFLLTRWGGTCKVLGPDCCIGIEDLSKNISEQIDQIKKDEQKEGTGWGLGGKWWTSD
# [3] = biological target: T4, glycoprotein from Reston ebolavirus (RESTV) (Reston ebolavirus (RESTV), UniProt Q66799 34-651); assay: as above
# T4 sequence: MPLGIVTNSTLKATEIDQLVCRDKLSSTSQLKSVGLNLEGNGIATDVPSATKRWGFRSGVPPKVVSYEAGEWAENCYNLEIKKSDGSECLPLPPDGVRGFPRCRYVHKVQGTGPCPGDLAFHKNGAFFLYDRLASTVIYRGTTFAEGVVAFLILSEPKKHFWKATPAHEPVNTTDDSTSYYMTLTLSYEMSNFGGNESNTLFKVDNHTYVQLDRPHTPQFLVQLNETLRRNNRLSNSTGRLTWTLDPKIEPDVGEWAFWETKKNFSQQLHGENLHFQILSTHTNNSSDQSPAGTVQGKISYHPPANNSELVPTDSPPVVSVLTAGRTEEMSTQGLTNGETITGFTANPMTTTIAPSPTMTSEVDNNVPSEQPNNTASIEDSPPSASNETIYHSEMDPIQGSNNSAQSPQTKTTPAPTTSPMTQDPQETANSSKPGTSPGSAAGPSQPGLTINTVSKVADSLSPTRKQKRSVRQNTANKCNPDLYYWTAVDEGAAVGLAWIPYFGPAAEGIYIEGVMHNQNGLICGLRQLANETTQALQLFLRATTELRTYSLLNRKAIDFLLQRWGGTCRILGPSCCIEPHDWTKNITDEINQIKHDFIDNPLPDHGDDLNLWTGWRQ
Binder,binding result [1],EC50 (EBOV soluble GP (sGP)) [nM],binding result [2],binding result (EBOV soluble GP (sGP)),binding result [3]
B1,binds,0.4,–,–,–
B2,binds,–,no binding,no binding (tested: about 67 nM (last point; axis to 100 nM)),–
B3,–,–,no binding,–,–
B4,binds,–,binds,–,–
B5,–,–,binds,–,–
B6,–,10.3,no binding,–,no binding
